The target in test [1] is somatostatin receptors on GH4 pituitary cells. Put plainly: cell-based or functional assay.
For test [2] the target is unchanged. Briefly: displacement of 125I-somatostatin-14 from GH4 pituitary cells. (Loss of bound radioactivity is the signal in a displacement assay; it reports binding, not function.)

For two molecules, inhibition of TRH-stimulated cAMP in GH4 cells, inhibition of VIP-stimulated cAMP in GH4 cells and Kd results are on record in patent publication US20050249734A1.

Ends that are not written are not given here.

By Kd is commonly meant the constant that tells how readily two partners part at equilibrium. A lower Kd goes with higher affinity.

Regarding “somatostatin-14 peptide (from UniProt P61278 103-116)”, in test [1], the inhibition of TRH-stimulated cAMP in GH4 cells stood at 10 nM and the inhibition of VIP-stimulated cAMP in GH4 cells was 50 % at 10^-6 M. Also, the Kd in test [2] worked out at 5 nM.

Turning to PCKNFFWKTFSSCK-NH2 (cysteine pairing not given here) [cortistatin-14 peptide], in test [1], the inhibition of TRH-stimulated cAMP in GH4 cells is 10 nM and the inhibition of VIP-stimulated cAMP in GH4 cells was determined as 50 % at 10^-6 M. In addition, the Kd in test [2] is 5 nM.
